The values below come from PMC8632240.

The target of this assay is human angiotensin-converting enzyme 2 extracellular domain fused to mouse Fc (hACE2-ECD-mFc) (human) (UniProt Q9BYF1). The assay is described as follows: ELISA.
human angiotensin-converting enzyme 2 extracellular domain fused to mouse Fc (hACE2-ECD-mFc) (human), sequence (Q9BYF1 19-617): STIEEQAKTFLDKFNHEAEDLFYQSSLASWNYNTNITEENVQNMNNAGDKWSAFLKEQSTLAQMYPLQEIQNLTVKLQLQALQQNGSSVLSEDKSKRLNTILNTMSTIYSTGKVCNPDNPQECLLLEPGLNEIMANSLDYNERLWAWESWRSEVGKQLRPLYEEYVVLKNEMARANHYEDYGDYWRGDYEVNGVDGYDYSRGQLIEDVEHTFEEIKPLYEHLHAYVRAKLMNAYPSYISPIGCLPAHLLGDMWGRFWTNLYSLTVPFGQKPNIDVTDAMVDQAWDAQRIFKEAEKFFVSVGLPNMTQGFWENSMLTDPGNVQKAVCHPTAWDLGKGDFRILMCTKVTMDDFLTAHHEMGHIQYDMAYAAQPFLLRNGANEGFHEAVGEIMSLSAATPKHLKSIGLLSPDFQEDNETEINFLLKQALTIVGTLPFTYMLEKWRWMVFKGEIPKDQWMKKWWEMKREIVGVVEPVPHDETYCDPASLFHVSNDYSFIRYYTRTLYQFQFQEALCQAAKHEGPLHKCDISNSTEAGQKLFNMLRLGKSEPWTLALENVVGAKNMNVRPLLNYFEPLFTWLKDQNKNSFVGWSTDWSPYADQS

As for “SARS-CoV-2 S-RBD reference (spike receptor-binding domain, reference type) (from UniProt P0DTC2 319-541) (domain or fragment)”, the IC50 (in general, the concentration that gives 50% inhibition) amounted to 123 nM.
